{"source": "paper PMC2119692", "key": {"[1]": {"biological_target": "calmodulin targets in the leading lamellae (region of transverse fibers) of Swiss 3T3 fibroblasts during wound healing", "assay": "steady state fluorescence anisotropy imaging microscopy"}, "[2]": {"biological_target": "target proteins of calmodulin in serum-deprived and serum-stimulated Swiss 3T3 fibroblasts", "assay": "steady state fluorescence anisotropy imaging microscopy"}}, "data": [{"substance": "FITC-calmodulin (from UniProt P62157 1-149) (natural protein)", "values": [{"measurement": "maximum fraction bound (fB)", "setting": "[1]", "value": 50, "unit": "%"}, {"measurement": "fraction bound (fB)", "setting": "[2]", "value": "< 10", "unit": "%"}, {"measurement": "maximum fraction bound (fB)", "setting": "[2]", "value": 95, "unit": "%"}]}]}
